# From patent publication US20210032352A1 (ANTERA THERAPEUTICS, published 2021)
# Assays:
# Assay in all cases: kinetic table (called BLI in paragraph 35); quantity name and unit not printed in the table: KD in M follows from FIG. 12A
# [1] = target: T1, human LRP6 ECD, Fc-tagged (human, UniProt O75581 20-1370)
# T1 construct: extracellular domain; Bought; also called LRP co-receptor; not shown: Fc tag of the purchased fusion
# T1 sequence (looked up): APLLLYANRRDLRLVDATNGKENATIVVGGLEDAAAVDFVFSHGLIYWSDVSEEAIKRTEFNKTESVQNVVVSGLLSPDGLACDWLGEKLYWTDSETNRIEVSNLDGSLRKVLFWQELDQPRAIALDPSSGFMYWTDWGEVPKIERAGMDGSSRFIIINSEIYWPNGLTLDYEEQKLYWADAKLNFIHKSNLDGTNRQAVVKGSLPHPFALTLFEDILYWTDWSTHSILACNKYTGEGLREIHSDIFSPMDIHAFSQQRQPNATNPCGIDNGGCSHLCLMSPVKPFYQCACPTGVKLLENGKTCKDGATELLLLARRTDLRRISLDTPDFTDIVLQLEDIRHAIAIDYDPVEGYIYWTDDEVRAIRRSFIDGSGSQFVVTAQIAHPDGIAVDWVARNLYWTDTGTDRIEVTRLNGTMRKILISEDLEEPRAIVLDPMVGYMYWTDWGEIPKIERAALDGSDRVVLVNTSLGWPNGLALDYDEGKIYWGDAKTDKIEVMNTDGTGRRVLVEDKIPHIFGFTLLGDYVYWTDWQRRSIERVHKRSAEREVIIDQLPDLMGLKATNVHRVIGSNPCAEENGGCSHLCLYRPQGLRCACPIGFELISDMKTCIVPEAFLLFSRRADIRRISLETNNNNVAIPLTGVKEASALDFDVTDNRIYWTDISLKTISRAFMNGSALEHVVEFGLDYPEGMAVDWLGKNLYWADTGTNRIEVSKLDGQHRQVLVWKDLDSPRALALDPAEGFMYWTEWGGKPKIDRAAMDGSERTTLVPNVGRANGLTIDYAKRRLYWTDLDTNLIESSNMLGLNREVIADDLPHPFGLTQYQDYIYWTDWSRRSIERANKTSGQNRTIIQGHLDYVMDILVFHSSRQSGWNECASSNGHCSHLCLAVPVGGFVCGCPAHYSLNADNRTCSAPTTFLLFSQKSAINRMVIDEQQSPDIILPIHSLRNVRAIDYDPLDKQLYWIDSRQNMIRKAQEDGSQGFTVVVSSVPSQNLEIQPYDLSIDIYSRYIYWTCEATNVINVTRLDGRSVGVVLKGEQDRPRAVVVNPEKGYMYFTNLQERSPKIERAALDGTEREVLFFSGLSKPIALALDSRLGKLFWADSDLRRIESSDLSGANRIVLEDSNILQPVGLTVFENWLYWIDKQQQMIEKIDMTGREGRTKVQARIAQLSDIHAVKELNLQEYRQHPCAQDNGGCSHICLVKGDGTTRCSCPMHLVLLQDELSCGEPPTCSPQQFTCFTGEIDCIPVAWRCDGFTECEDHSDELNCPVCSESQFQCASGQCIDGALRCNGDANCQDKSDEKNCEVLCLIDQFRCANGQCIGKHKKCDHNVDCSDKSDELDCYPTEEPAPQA
# [2] = target: T2, FZD1 CRD, Fc-tagged (human, UniProt Q9UP38 70-250)
# T2 construct: domain: CRD; Bought; not shown: Fc tag of the purchased fusion
# [3] = target: FZD7 CRD, Fc-tagged (human, UniProt O75084 33-185)
# [4] = target: T3, FZD2 CRD, Fc-tagged (human, UniProt Q14332 24-190)
# T3 construct: domain: CRD; Bought; not shown: Fc tag of the purchased fusion
# T2 sequence (Q9UP38 70-250): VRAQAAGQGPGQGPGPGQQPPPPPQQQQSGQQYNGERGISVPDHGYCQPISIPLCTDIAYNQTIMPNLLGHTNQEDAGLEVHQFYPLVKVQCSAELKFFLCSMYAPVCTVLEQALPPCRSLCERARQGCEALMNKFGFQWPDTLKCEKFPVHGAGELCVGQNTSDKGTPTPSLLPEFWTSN
Binder,Kd [1] [pM],Kd [2] [pM],Kd [3] [pM],Kd [4] [pM]
F^P*+P*-L6^1*+3* (bispecific antibody) chain 1: DIQMTQSPSSLSASVGDRVTITCRASQSVSSAVAWYQQKPGKAPKLLIYSASSLYSGVPSRFSGSRSGTDFTLTISSLQPEDFATYYCQQGVYLFTFGQGTKVEIKGTTAASGSSGGSSSGAEVQLVESGGGLVQPGGSLRLSCAASGFNIGSSSIHWVRQAPGKGLEWVASIYSAFASTSYADSVKGRFTISADTSKNTAYLQMNSLRAEDTAVYYCARYHFPFGFALDYWGQGTLVTVSSLEDKTHTKVEPKTSDKTHTCPPCPAPELLGGPSVFLFPPKPKDTLMISRTPEVTCVVVDVSHEDPEVKFNWYVDGVEVHNAKTKPREEQYNSTYRVVSVLTVLHQDWLNGKEYKCKVSNKALPAPIEKTISKAKGQPREPMVFDLPPSREEMTKNQVSLWCMVKGFYPSDIAVEWESNGQPENNYKTTPPVLDSDGSFFLYSKLTVDKSRWQQGNVFSCSVMHEALHNHYTQKSLSLSPGKSGSETPGTSESATPESGGGDIQMTQSPSSLSASVGDRVTITCRASQSVSSAVAWYQQKPGKAPKLLIYSASSLYSGVPSRFSGSRSGTDFTLTISSLQPEDFATYYCQQYSWGPFTFGQGTKVEIKGTTAASGSSGGSSSGAEVQLVESGGGLVQPGGSLRLSCAASGFNISYSSIHWVRQAPGKGLEWVAYISSYYGYTYYADSVKGRFTISADTSKNTAYLQMNSLRAEDTAVYYCARAHYFPWAGAMDYWGQGTLVTVSS chain 2: DIQMTQSPSSLSASVGDRVTITCRASQSVSSAVAWYQQKPGKAPKLLIYSASSLYSGVPSRFSGSRSGTDFTLTISSLQPEDFATYYCQQGVYLFTFGQGTKVEIKGTTAASGSSGGSSSGAEVQLVESGGGLVQPGGSLRLSCAASGFNIGSSSIHWVRQAPGKGLEWVASIYSAFASTSYADSVKGRFTISADTSKNTAYLQMNSLRAEDTAVYYCARYHFPFGFALDYWGQGTLVTVSSLEDKTHTKVEPKSSDKTHNCPPCPAPELLGGPSVFLFPPKPKDTLMISRTPEVTCVVVDVSHEDPEVKFNWYVDGVEVHNAKTKPREEQYNSTYRVVSVLTVLHQDWLNGKEYKCKVSNKALPAPIEKTISKAKGQPREPQVYTLPPIRELMTSNQVSLSCAVKGFYPSDIAVEWESNGQPENNYKTTPPVLDSDGSFFLVSKLTVDKSRWQQGNVFSCSVMHEALHNHYTQKSLSLSPGKSGSETPGTSESATPESGGGDIQMTQSPSSLSASVGDRVTITCRASQSVSSAVAWYQQKPGKAPKLLIYSASSLYSGVPSRFSGSRSGTDFTLTISSLQPEDFATYYCQQYYWPITFGQGTKVEIKGTTAASGSSGGSSSGAEVQLVESGGGLVQPGGSLRLSCAASGFNISSYYIHWVRQAPGKGLEWVASIYSSYGYTSYADSVKGRFTISADTSKNTAYLQMNSLRAEDTAVYYCARTVRGSKKPYFSGWAMDYWGQGTLVTVSS,9700,130,100,150
F^P*+P*-L6^1+3 (bispecific antibody) knob: DIQMTQSPSSLSASVGDRVTITCRASQSVSSAVAWYQQKPGKAPKLLIYSASSLYSGVPSRFSGSRSGTDFTLTISSLQPEDFATYYCQQGVYLFTFGQGTKVEIKGTTAASGSSGGSSSGAEVQLVESGGGLVQPGGSLRLSCAASGFNIGSSSIHWVRQAPGKGLEWVASIYSAFASTSYADSVKGRFTISADTSKNTAYLQMNSLRAEDTAVYYCARYHFPFGFALDYWGQGTLVTVSSLEDKTHTKVEPKTSDKTHTCPPCPAPELLGGPSVFLFPPKPKDTLMISRTPEVTCVVVDVSHEDPEVKFNWYVDGVEVHNAKTKPREEQYNSTYRVVSVLTVLHQDWLNGKEYKCKVSNKALPAPIEKTISKAKGQPREPMVFDLPPSREEMTKNQVSLWCMVKGFYPSDIAVEWESNGQPENNYKTTPPVLDSDGSFFLYSKLTVDKSRWQQGNVFSCSVMHEALHNHYTQKSLSLSPGKSGSETPGTSESATPESGGGEVQLVESGGGLVQPGGSLRLSCAASGFNISYSSIHWVRQAPGKGLEWVAYISSYYGYTYYADSVKGRFTISADTSKNTAYLQMNSLRAEDTAVYYCARAHYFPWAGAMDYWGQGTLVTVSSGGGGSDIQMTQSPSSLSASVGDRVTITCRASQSVSSAVAWYQQKPGKAPKLLIYSASSLYSGVPSRFSGSRSGTDFTLTISSLQPEDFATYYCQQYYWPITFGQGTKVEIK hole: DIQMTQSPSSLSASVGDRVTITCRASQSVSSAVAWYQQKPGKAPKLLIYSASSLYSGVPSRFSGSRSGTDFTLTISSLQPEDFATYYCQQGVYLFTFGQGTKVEIKGTTAASGSSGGSSSGAEVQLVESGGGLVQPGGSLRLSCAASGFNIGSSSIHWVRQAPGKGLEWVASIYSAFASTSYADSVKGRFTISADTSKNTAYLQMNSLRAEDTAVYYCARYHFPFGFALDYWGQGTLVTVSSLEDKTHTKVEPKSSDKTHNCPPCPAPELLGGPSVFLFPPKPKDTLMISRTPEVTCVVVDVSHEDPEVKFNWYVDGVEVHNAKTKPREEQYNSTYRVVSVLTVLHQDWLNGKEYKCKVSNKALPAPIEKTISKAKGQPREPQVYTLPPIRELMTSNQVSLSCAVKGFYPSDIAVEWESNGQPENNYKTTPPVLDSDGSFFLVSKLTVDKSRWQQGNVFSCSVMHEALHNHYTQKSLSLSPGKSGSETPGTSESATPESGGGEVQLVESGGGLVQPGGSLRLSCAASGFNISSYYIHWVRQAPGKGLEWVASIYSSYGYTSYADSVKGRFTISADTSKNTAYLQMNSLRAEDTAVYYCARTVRGSKKPYFSGWAMDYWGQGTLVTVSSGGGGSDIQMTQSPSSLSASVGDRVTITCRASQSVSSAVAWYQQKPGKAPKLLIYSASSLYSGVPSRFSGSRSGTDFTLTISSLQPEDFATYYCQQYSWGPFTFGQGTKVEIK,8200,90,27,84
